Results published in article PMC5797019 (2017).

Biological target: vp22-RelA302-316 peptide (herpes virus | , UniProt Q04206 302-316)
Test: SPR

B1: His-SETD6 (enzyme)
chain: MATQAKRPRVAGPVDGGDLDPVACFLSWCRRVGLELSPKVSERAGGRRTRGGARAALTSPPAQVAVSRQGTVAGYGMVARESVQAGELLFVVPRAALLSQHTCSIGGLLERERVALQSQSGWVPLLLALLHELQAPASRWRPYFALWPELGRLEHPMFWPEEERRCLLQGTGVPEAVEKDLANIRSEYQSIVLPFMEAHPDLFSLRVRSLELYHQLVALVMAYSFQEPLEEEEDEKEPNSPVMVPAADILNHLANHNANLEYSANCLRMVATQPIPKGHEIFNTYGQMANWQLIHMYGFVEPYPDNTDDTADIQMVTVREAALQGTKTEAERHLVYERWDFLCKLEMVGEEGAFVIGREEVLTEEELTTTLKVLCMPAEEFRELKDQDGGGDDKREEGSLTITNIPKLKASWRQLLQNSVLLTLQTYATDLKTDQGLLSNKEVYAKLSWREQQALQVRYGQKMILHQLLELTS
B1 was tested, and the Kd was 1100 nM.
